Test results from article PMC6760769, “A pull-down and slot blot-based screening system for inhibitor compounds of the podoplanin-CLEC-2 interaction” (PLoS ONE, 2019).
Blank lines part the entries; values can stand above or below the molecule they belong to.

What was measured:
[1] = target: T1, C-type lectin-like receptor 2 (CLEC-2) (Homo sapiens, UniProt Q9P126); assay: pull-down of podoplanin (pod-HeLa lysate) with purified Fc-CLEC-2 pre-incubated with compound; slot blot and western blot; assay type: biochemical
T1 construct: gene CLEC1B; extracellular region of CLEC-2 (351–890, NM_016509), human IgG1 Fc-fusion (Fc-CLEC-2); with podoplanin
T1 sequence (Q9P126 50-229, one chain of several): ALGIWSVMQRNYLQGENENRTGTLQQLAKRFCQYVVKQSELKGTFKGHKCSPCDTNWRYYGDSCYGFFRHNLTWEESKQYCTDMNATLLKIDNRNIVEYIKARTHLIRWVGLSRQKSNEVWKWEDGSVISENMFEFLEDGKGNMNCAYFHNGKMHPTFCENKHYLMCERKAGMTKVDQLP

[2] = target: Fc moiety alone (human IgG1 Fc) (human); assay: SDS-PAGE under reducing and non-reducing conditions; purified protein, with or without 2-mercaptoethanol, Coomassie blue staining
CLEC-2 (Homo sapiens) = CLEC-2 (Homo sapiens) (UniProt Q9P126); conditions: cited from earlier work
Sequence of CLEC-2 (Homo sapiens) (Q9P126 whole entry, the tested form may be a part): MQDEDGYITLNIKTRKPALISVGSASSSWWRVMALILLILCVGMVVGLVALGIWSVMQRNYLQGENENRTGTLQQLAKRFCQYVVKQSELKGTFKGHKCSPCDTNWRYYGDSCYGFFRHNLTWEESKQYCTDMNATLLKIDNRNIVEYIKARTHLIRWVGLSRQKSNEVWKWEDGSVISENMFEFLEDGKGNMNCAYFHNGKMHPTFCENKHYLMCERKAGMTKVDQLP

[3] = target: immunoglobulin Fc domain-CLEC-2 fusion protein (Fc-CLEC-2) (human) (UniProt Q9P126); assay: pull-down; Fc-CLEC-2 or Fc (25 ug/mL) mixed in solution with pod-HeLa lysate (1.5 mg/mL; concentrations varied in some panels) on ice for 2 h, captured on protein A beads, washed 4x with TBST in a centrifugal filter unit, acid elution, SDS-PAGE and western blot with anti-podoplanin
Sequence of immunoglobulin Fc domain-CLEC-2 fusion protein (Fc-CLEC-2) (human) (Q9P126 whole entry, the tested form may be a part): as above

[4] = target: immunoglobulin Fc domain-CLEC-2 fusion protein (Fc-CLEC-2) (human) (UniProt Q9P126); assay: pull-down; standard combination (25 ug/mL Fc-CLEC-2, 1.5 mg/mL pod-HeLa lysate); hematoporphyrin or 2CP pre-incubated with Fc-CLEC-2 for 30 min, 2% DMSO control, in the dark; 10 uL slot-blotted; podoplanin intensity normalised to CLEC-2 intensity

- inhibition at 20 µM [1]: ~70%
Molecule: CC1=C(CCC(=O)O)c2cc3[nH]c(cc4nc(cc5[nH]c(cc1n2)c(C)c5C(C)O)C(C)=C4C(C)O)c(C)c3CCC(=O)O (centres unmarked) [HPy, hematoporphyrin]

- stoichiometry N [2]: 2
Molecule: Fc moiety alone (human IgG1 Fc) (domain or fragment)

Molecule: podoplanin (from UniProt Q86YL7)
- Kd (CLEC-2 (Homo sapiens)): 25 µM

- percent of podoplanin recovered in the pull-down [3]: < 20%
- percent inhibition of the pull-down by 20 uM hematoporphyrin [4]: 70%
B1: podoplanin (full-length, from podoplanin-overexpressing HeLa cells) (natural protein)
chain: ASTGQPEDDTETTGLEGGVAMPGAEDDVVTPGTSEDRYKSGLTTLVATSVNSVTGIRIEDLPTSESTVHAQEQSPSATASNVATSHSTEKVDGDTQTTVEKDGLSTVTLVGIIVGVLLAIGFIGAIIVVVMRKMSGRYSP
